# Source: patent US20090092602A1 (published 2009)
# B1: hFAT (humanized IgG Four Anti-Tissue Factor antibody) (antibody)
# heavy: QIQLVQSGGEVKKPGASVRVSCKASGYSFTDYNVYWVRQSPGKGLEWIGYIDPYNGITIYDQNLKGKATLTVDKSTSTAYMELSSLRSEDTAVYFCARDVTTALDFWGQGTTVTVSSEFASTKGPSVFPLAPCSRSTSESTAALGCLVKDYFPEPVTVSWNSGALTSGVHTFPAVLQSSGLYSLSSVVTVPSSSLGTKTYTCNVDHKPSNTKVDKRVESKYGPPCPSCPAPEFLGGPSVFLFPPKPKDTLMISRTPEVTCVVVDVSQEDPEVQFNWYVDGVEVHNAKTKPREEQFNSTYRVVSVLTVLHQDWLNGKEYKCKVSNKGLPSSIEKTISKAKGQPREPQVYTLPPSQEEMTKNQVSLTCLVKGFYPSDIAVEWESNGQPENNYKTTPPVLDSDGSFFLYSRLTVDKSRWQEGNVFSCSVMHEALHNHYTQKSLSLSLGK
# light: DIQMTQSPASLSASVGDRVTITCLASQTIDTWLAWYLQKPGKSPQLLIYAATNLADGVPSRFSGSGSGTDFSFTISSLQPEDFATYYCQQVYSSPFTFGQGTKLEIKRTVAAPSVFIFPPSDEQLKSGTASVVCLLNNFYPREAKVQWKVDNALQSGNSQESVTEQDSKDSTYSLSSTLTLSKADYEKHKVYACEVTHQGLSSPVTKSFNRGEC
# notes: also called humanized cH36-IgG4; HC08 + LC09 IgG4 kappa
# B2: cH36 chimeric anti-tissue factor antibody (antibody, human IgG4, V domains shown)
# VH: EIQLQQSGPELVKPGASVQVSCKTSGYSFTDYNVYWVRQSHGKSLEWIGYIDPYNGITIYDQNFKGKATLTVDKSSTTAFMHLNSLTSDDSAVYFCARDVTTALDFWGQGTTLTVSS
# VL: DIQMTQSPASQSASLGESVTITCLASQTIDTWLAWYQQKPGKSPQLLIYAATNLADGVPSRFSGSGSGTKFSFKISSLQAEDFVNYYCQQVYSSPFTFGAGTKLELK
# notes: Mouse-human chimera; also called Sunol-cH36; chimeric H36
# B3: H36.D2.B7 murine anti-tissue factor monoclonal antibody (antibody, mouse IgG2a, V domains shown)
# VH: B2 VH
# VL: B2 VL
# B4: hOAT (humanized IgG One Anti-Tissue Factor antibody) (antibody)
# heavy: not shown
# light: B1 light
# Molecular target: T1, recombinant human tissue factor (human, UniProt P13726 33-251, limits assumed)
# T1 construct: also called TF; human TF
# Test: SPR (BIAcore), recombinant human TF immobilized on CM5 chip, antibody 0.125-1 nM; apparent Ka
# Experimental: (§1) The affinity of humanized anti-TF antibody for TF was determined by surface plasmon resonance (BIAcore from Pharmacia Biosensor) with recombinant human tissue factor covalently immobilized on a CM5 sensor chip.
row,Ka,Binder
1,2.99e+09 M⁻¹,B1
2,7.94e+09 M⁻¹,B2
3,1.56e+10 M⁻¹,B3

# Molecular target: T2, lipidated recombinant human tissue factor (Innovin) (human, UniProt P13726 33-295, limits assumed)
# Test: cell-based or functional assay
PT Time (in seconds) at 12.9 nM antibody (12.2 s at 0 nM),PT Time (in seconds) at 25.8 nM antibody (12.2 s at 0 nM),PT Time (in seconds) at 51.6 nM antibody (12.2 s at 0 nM),Binder
18.9 s,33.7 s,82.1 s,B4
20.5 s,41.7 s,94.8 s,B1
19.8 s,40 s,101 s,B2

# Molecular target: T2, lipidated recombinant human tissue …
# Test: cell-based or functional assay
# Remark: another data set of the same source
row,inhibition of TF function in PT assay at above 12.9 nM antibody,Binder
1,~95%,B4
2,~95%,B1
3,~95%,B2

# Molecular target: T1, recombinant human tissue factor
# Test: SPR (BIAcore), recombinant human TF immobilized on CM5 chip, antibody 0.125-1 nM; apparent Kd
# Experimental: as §1
row,Kd,Binder
1,335 pM,B1
2,126 pM,B2
3,64 pM,B3
